Numbering of substitutions follows the chain as printed. Like-named read-outs stand apart in the source and are kept apart here.
How the values were obtained:
[1] = molecular target: T1, rabTFPI K1K2 (rabbit, limits assumed); assay: ELISA, TFPI on streptavidin plate
T1 construct: also called Rabbit TFPI K1K2
T1 chain: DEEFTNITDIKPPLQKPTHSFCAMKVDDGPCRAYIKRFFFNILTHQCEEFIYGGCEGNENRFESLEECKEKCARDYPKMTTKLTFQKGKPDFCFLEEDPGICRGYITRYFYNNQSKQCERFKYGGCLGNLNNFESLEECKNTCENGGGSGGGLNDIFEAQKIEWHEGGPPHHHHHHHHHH

[2] = molecular target: T1, rabTFPI K1K2; assay: SPR, antibody ligand, TFPI analyte
[3] = molecular target: T1, rabTFPI K1K2; assay: ELISA, TFPI on streptavidin plate
[4] = molecular target: T1, rabTFPI K1K2; assay: SPR (summary table)
[5] = molecular target: T1, rabTFPI K1K2; assay: SPR, antibody ligand, TFPI analyte
[6] = molecular target: T2, cynTFPI K1K2 (cynomolgus monkey); assay: SPR, antibody ligand, TFPI analyte
T2 construct: also called Cynomolgus Monkey TFPI K1K2; cyno TFPI K1K2

[7] = molecular target: T3, humTFPI K1K2 (human); assay: SPR, antibody ligand, TFPI analyte
T3 construct: Biotinylated on the AviTag for ELISA; also called Human TFPI alpha K1K2; humTFPI K1K2-aviHis10

[8] = molecular target: T1, rabTFPI K1K2; assay: SPR, antibody ligand, TFPI analyte
[9] = molecular target: T1, rabTFPI K1K2; assay: ELISA, TFPI on streptavidin plate
[10] = molecular target: T3, humTFPI K1K2; assay: SPR, antibody ligand, TFPI analyte; remark: listed apart in the source

B1: 7A4.D9 (antibody, V domains shown)
VH: EVQLQQSGPELVKPGASVKMSCKASGYTFTSYVMHWVKQKPGQGLEWIGYLNPYNDGTKYNEKFKGKASLISDKSSSTVYMELSSLTSEDSAVYYCATTLLYAMDYWGQGSSVTVSS
VL: DIVLTQSPASLAVSLGQRATISCRASKSVSTSGYTYMHWYQQKPGQPPKLLIYLASNLESGVPARFSGSGSGTDFTLNIHPVEEEDAAAYYCQHIRELPFTFGSGTKLEIKA
notes: Mouse hybridoma antibody
EC50 [1]: 0.0887 nM
Kd [2]: 3.55 nM
koff [2]: 0.0188 s⁻¹
kon [2]: 5.3e+06 M⁻¹ s⁻¹

B2: 4D8-Vk1.0 x VH1.0 (antibody, human IgG1, kappa, V domains shown)
VH: EVQLVESGGGLVQPGGSLRLSCAASGYTFTDYNLDWVRQAPGKGLEWVADINPINGATLYNQKFKGRFTISRDNAKNSLYLQMNSLRAEDTAVYYCARYYGDYDAMDYWGQGTLVTVSS
VL: DIQMTQSPSSLSASVGDRVTITCKASQDVHTAVAWYQQKPGKAPKLLIYWASTRHTGVPSRFSGSGSGTDFTLTISSLQPEDFATYYCQQHYTTPYTFGQGTKLEIKR
notes: Humanized 4D8 variant
EC50 [3]: 0.0785 nM

B3: 4D8-Vk1.0 x VH1.1 (antibody, human IgG1, kappa, V domains shown)
VH: B2 VH with A49G, F68A, R72V, N74Q, L79A
VL: B2 VL
notes: Humanized 4D8 variant
EC50 [3]: 0.0705 nM

B4: 4D8-Vk1.1 x VH1.1 (antibody, human IgG1, kappa, V domains shown)
VH: B2 VH with A49G, F68A, R72V, N74Q, L79A
VL: B2 VL with F71Y
notes: Humanized 4D8 variant
EC50 [3]: 0.0788 nM

B5: 4D8-Vk1.1 x VH1.2 (antibody, human IgG1, kappa, V domains shown)
VH: B2 VH with A49G
VL: B2 VL with F71Y
notes: Humanized 4D8 variant
EC50 [3]: 0.0783 nM

B6: 4D8-Vk1.1 x VH1.0 (antibody, human IgG1, kappa, V domains shown)
VH: B2 VH
VL: B2 VL with F71Y
notes: Humanized 4D8 variant
EC50 [3]: 0.0451 nM

B7: hz4D8 (antibody, human IgG1, kappa, V domains shown)
VH: B2 VH with N74Q
VL: B2 VL with F71Y
notes: humanized, human IgG1 3M / kappa; also called 4D8-Vk1.1 x VH1.4; 4D8 Vk 1.1 x VH 1.4
Kd [4]: 0.502 nM
EC50 [3]: 0.0716 nM
Kd [5]: 0.502 nM
koff [5]: 0.0029 s⁻¹
kon [5]: 3.16e+06 M⁻¹ s⁻¹

B8: 4D8-Vk1.0 x VH1.3 (antibody, human IgG1, kappa, V domains shown)
VH: B2 VH with F68A
VL: B2 VL
notes: Humanized 4D8 variant
EC50 [3]: 0.0556 nM

B9: 4D8-Vk1.0 x VH1.4 (antibody, human IgG1, kappa, V domains shown)
VH: B2 VH with N74Q
VL: B2 VL
notes: Humanized 4D8 variant
EC50 [3]: 0.0426 nM

B10: 4D8-Vk1.1 x VH1.3 (antibody, human IgG1, kappa, V domains shown)
VH: B2 VH with F68A
VL: B2 VL with F71Y
notes: Humanized 4D8 variant
EC50 [3]: 0.0511 nM

B11: 4D8-Vk1.0 x VH1.2 (antibody, human IgG1, kappa, V domains shown)
VH: B2 VH with A49G
VL: B2 VL
notes: Humanized 4D8 variant
EC50 [3]: 0.0422 nM

B12: 2A8 (antibody, human IgG1, lambda, V domains shown)
VH: QVQLVESGGGLVQPGGSLRLSCAASGFTFRSYGMSWVRQAPGKGLEWVSSIRGSSSSTYYADSVKGRFTISRDNSKNTLYLQMNSLRAEDTAVYYCARKYRYWFDYWGQGTLVTVSS
VL: DIELTQPPSVSVAPGQTARISCSGDNLRNYYAHWYQQKPGQAPVVVIYYDNNRPSGIPERFSGSNSGNTATLTISGTQAEDEADYYCQSWDDGVPVFGGGTKLTVLG
Kd [5]: 1.69 nM
koff [5]: 0.00123 s⁻¹
kon [5]: 730000 M⁻¹ s⁻¹
koff [6]: 0.0306 s⁻¹

B13: 2A8-200 (antibody, human IgG1, lambda, V domains shown)
VH: B12 VH with S35D, S55R, K99L
VL: B12 VL with Y48F, N51V, D91W
notes: also called Anti-TFPI-2A8-200
Kd [4]: 0.145 nM
koff [7]: 0.00381 s⁻¹
Kd [5]: 0.145 nM
koff [5]: 0.000277 s⁻¹
kon [5]: 1.92e+06 M⁻¹ s⁻¹

B14: TFPI-106 (antibody, human IgG1, lambda)
heavy: not shown
light: QSVLTQPPSVSGAPGQRVTISCTGSSSNIGAGYDVHWYQQLPGTAPKLLIYGNSNRPSGVPDRFSGSKSGTSASLAITGLQAEDEADYYCQSYDSSLSGSGVFGGGTKLTVLGQPKAAPSVTLFPPSSEELQANKATLVCLISDFYPGAVTVAWKADSSPVKAGVETTTPSKQSNNKYAASSYLSLTPEQWKSHRSYSCQVTHEGSTVEKTVAPTECS
notes: IgG1-3M
Kd [4]: 4.25 nM
Kd [5]: 4.25 nM

B15: mu-hu 4D8 chimera (antibody, human IgG1, kappa)
heavy: EVLLQQSGPELVKPGASVKIPCKASGYTFTDYNLDWVKQSHGKSLEWIGDINPINGATLYNQKFKGKATLTVDQSSSTAYMELRSLTSEDTAVYYCSIYYGDYDAMDYWGQGASVTVSSASTKGPSVFPLAPSSKSTSGGTAALGCLVKDYFPEPVTVSWNSGALTSGVHTFPAVLQSSGLYSLSSVVTVPSSSLGTQTYICNVNHKPSNTKVDKKVEPKSCDKTHTCPPCPAPEAAGAPSVFLFPPKPKDTLMISRTPEVTCVVVDVSHEDPEVKFNWYVDGVEVHNAKTKPREEQYNSTYRVVSVLTVLHQDWLNGKEYKCKVSNKALPAPIEKTISKAKGQPREPQVYTLPPSREEMTKNQVSLTCLVKGFYPSDIAVEWESNGQPENNYKTTPPVLDSDGSFFLYSKLTVDKSRWQQGNVFSCSVMHEALHNHYTQKSLSLSPG
light: DIVMTQSHKFMSTSVGDRVSITCKASQDVHTAVAWYQQKPGQSPRLLIYWASTRHTGVPDRFTGCGSGTDYTLTISSVQAEDLALYYCQQHYTTPYTFGGGTKLEMKRTVAAPSVFIFPPSDEQLKSGTASVVCLLNNFYPREAKVQWKVDNALQSGNSQESVTEQDSKDSTYSLSSTLTLSKADYEKHKVYACEVTHQGLSSPVTKSFNRGEC
notes: Mouse variable regions on human IgG1 3M and human kappa constant regions; also called hu-mu 4D8 chimera; mouse-human chimeric antibody 4D8
Kd [8]: 0.63 nM
koff [8]: 0.00126 s⁻¹
kon [8]: 2.01e+06 M⁻¹ s⁻¹
EC50 [9]: 0.068 nM

B16: TFPI-24 (antibody, human IgG1, lambda, V domains shown)
VH: EVQLVESGGGSVQPGRSLRLSCAVSGLTIDNYAMQWVRQRPGKGLEWVSGISGNSRSIGYADSVKGRLTISRDNAKNSLYLQIDSLRADDTALYYCAIFLHESDYWGQGTLVTVSS
VL: QSVLTQPPSVSGTPGQRVTISCSGSTSNIGTMYVHWYQHVPGTAPKLLIYRNNHRPSGVPDRFSGSKSGTSGSLAISGLRSEDEADYYCLAWDDTLRAYVFGTGTKVTVLG
notes: Phage-derived, human IgG1-3M; also called mAb-TFPI-24; clone 24
Kd [10]: 3.68 nM
koff [10]: 0.00971 s⁻¹
kon [10]: 918000 M⁻¹ s⁻¹

B17: TFPI-118 (antibody, human IgG1, lambda, V domains shown)
VH: B16 VH with S11L, R40A, L68F, I83M, D84N, D89E
VL: B16 VL with V10A, H39Q, V40L, G72A
notes: Germlined variant of TFPI-24: VL of TFPI-113 paired with VH of TFPI-108
Kd [4]: 5.79 nM
Kd [5]: 5.79 nM

B18: hz4F36 (antibody, human IgG4 S228P, kappa, V domains shown)
VH: EVQLVESGGGLVKPGGSLRLSCAASGFTFSNYAMSWVRQTPEKRLEWVATISRSGSYSYFPDSVQGRFTISRDNAKNSLYLQMNSLRAEDTAVYYCARLGGYDEGDAMDSWGQGTTVTVSS
VL: DIVMTQTPLSLSVTPGQPASISCKSSQSLLESDGKTYLNWYLQKPGQSPQLLIYLVSILDSGVPDRFSGSGSGTDFTLKISRVEAEDVGVYYCLQATHFPQTFGGGTKVEIKR
notes: also called Novo2021; Anti-TFPI-4F36
Kd [4]: 1.81 nM
Kd [5]: 1.81 nM
koff [5]: 0.0076 s⁻¹
kon [5]: 4.2e+06 M⁻¹ s⁻¹

B19: 6B7.c5 (antibody, human IgG1, kappa, V domains shown)
VH: EVLLQQSGPELVKPGSSVKIPCKASGYTFTDYTMDWVKQSHGKSLEWIGDINPSNGGSIYNRKFKGKATLTVDKSSSTAYMELRSLTSEDTAVYYCARMHYNYDGFPYWGQGTLVTVSA
VL: DIVMTQSHKFMSTSVGDRVSITCKASQDVITAVAWYQQKPGQSPKLLIYWASTRHTGVPVRFTGSGSGTDYTLTIISVQAEDLALYYCQQHYSTPYTFGGGTKLEIKA
notes: Mouse hybridoma antibody
EC50 [1]: 0.129 nM
Kd [2]: 4.95 nM
koff [2]: 0.00564 s⁻¹
kon [2]: 1.14e+06 M⁻¹ s⁻¹

B20: 4D8.b1 (antibody, mouse IgG1, kappa)
heavy: EVLLQQSGPELVKPGASVKIPCKASGYTFTDYNLDWVKQSHGKSLEWIGDINPINGATLYNQKFKGKATLTVDQSSSTAYMELRSLTSEDTAVYYCSIYYGDYDAMDYWGQGASVTVSSAKTTPPSVYPLAPGSAAQTNSMVTLGCLVKGYFPEPVTVTWNSGSLSSGVHTFPAVLQSDLYTLSSSVTVPSSTWPSETVTCNVAHPASSTKVDKKIVPRDCGCKPCICTVPEVSSVFIFPPKPKDVLTITLTPKVTCVVVDISKDDPEVQFSWFVDDVEVHTAQTQPREEQFNSTFRSVSELPIMHQDWLNGKEFKCRVNSAAFPAPIEKTISKTKGRPKAPQVYTIPPPKEQMAKDKVSLTCMITDFFPEDITVEWQWNGQPAENYKNTQPIMDTDGSYFVYSKLNVQKSNWEAGNTFTCSVLHEGLHNHHTEKSLSHSPGK
light: DIVMTQSHKFMSTSVGDRVSITCKASQDVHTAVAWYQQKPGQSPRLLIYWASTRHTGVPDRFTGCGSGTDYTLTISSVQAEDLALYYCQQHYTTPYTFGGGTKLEMKADAAPTVSIFPPSSEQLTSGGASVVCFLNNFYPKDINVKWKIDGSERQNGVLNSWTDQDSKDSTYSMSSTLTLTKDEYERHNSYTCEATHKTSTSPIVKSFNRNEC
notes: also called mouse 4d8.b1; TFPI 4D8
EC50 [1]: 0.0976 nM
Kd [2]: 0.63 nM
koff [2]: 0.00126 s⁻¹
kon [2]: 2.01e+06 M⁻¹ s⁻¹

Source: patent EP4792830A2 (Pfizer Inc., dated 2026)
